Reference: patent US20200010570A1

Target: C1q (Fitzgerald, Cat. No. 32R-AC049) (UniProt P02745)
Assay: ForteBio, biotinylated antibody on SA chip, C1q from 200 nM

Chain of C1q (Fitzgerald, Cat. No. 32R-AC049) (P02745 23-245 limits assumed, chain 1 of 3): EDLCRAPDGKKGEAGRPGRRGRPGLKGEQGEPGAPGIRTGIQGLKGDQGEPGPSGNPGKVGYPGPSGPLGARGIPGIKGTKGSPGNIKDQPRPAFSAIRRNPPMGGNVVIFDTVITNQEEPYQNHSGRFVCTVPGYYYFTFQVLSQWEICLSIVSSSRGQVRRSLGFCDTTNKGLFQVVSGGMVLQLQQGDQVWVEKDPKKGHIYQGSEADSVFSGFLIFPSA
Chain of C1q (Fitzgerald, Cat. No. 32R-AC049) (P02746 28-253 limits assumed, chain 2 of 3, further chain): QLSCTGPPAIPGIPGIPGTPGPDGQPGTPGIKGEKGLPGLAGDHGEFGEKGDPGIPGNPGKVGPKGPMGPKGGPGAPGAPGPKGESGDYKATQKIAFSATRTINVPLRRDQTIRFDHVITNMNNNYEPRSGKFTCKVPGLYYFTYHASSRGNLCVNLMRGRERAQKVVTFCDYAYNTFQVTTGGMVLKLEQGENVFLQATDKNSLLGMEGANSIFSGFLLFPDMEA
Chain of C1q (Fitzgerald, Cat. No. 32R-AC049) (P02747 29-245 limits assumed, chain 3 of 3, further chain): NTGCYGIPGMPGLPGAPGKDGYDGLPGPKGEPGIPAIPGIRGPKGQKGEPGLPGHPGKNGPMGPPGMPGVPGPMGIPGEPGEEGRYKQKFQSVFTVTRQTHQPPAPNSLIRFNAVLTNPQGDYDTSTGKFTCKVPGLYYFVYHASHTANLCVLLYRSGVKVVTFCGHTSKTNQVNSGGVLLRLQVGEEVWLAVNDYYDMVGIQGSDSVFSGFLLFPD

Kd: 1.3 nM
koff: 0.00176 s⁻¹
kon: 1.36e+06 M⁻¹ s⁻¹
Substance: Tecentriq® (Atezolizumab, purchased from Roche) (antibody)
